We go through two molecules from PMC6325624, “A novel isoprimeverose‐producing enzyme from Phaeoacremonium minimum is active with low concentrations of xyloglucan oligosaccharides” (FEBS Open Bio, 2018).

Broadly, the Km is the substrate concentration at which the rate is half of its maximum. One may read the kcat as the number of substrate molecules converted per active site and unit of time at saturation. The term kcat/Km denotes the second-order rate constant that governs catalysis at low substrate concentration.

In data set [1] the test system is OC[C@@H](O)[C@@H](O[C@@H]1O[C@H](CO[C@H]2OC[C@@H](O)[C@H](O)[C@H]2O)[C@@H](O[C@@H]2O[C@H](CO[C@H]3OC[C@@H](O)[C@H](O)[C@H]3O)[C@@H](O[C@@H]3O[C@H](CO[C@H]4OC[C@@H](O)[C@H](O)[C@H]4O)[C@@H](O)[C@H](O)[C@H]3O)[C@H](O)[C@H]2O)[C@H](O)[C@H]1O)[C@H](O)[C@@H](O)CO. Put plainly: bicinchoninate reducing-sugar assay, Michaelis-Menten nonlinear regression. Type of data set: biochemical, Aspergillus oryzae. To be noted: 50 mM sodium phosphate pH 4.5, 60 °C, 5 min, 0.0625-4 mM substrate. An excerpt:
bicinchoninate reducing-sugar assay, Michaelis-Menten nonlinear regression on IpeA

Substrate in data set [2]: OC[C@@H](O)[C@@H](O[C@@H]1O[C@H](CO[C@H]2OC[C@@H](O)[C@H](O)[C@H]2O)[C@@H](O[C@@H]2O[C@H](CO[C@H]3OC[C@@H](O)[C@H](O)[C@H]3O)[C@@H](O[C@@H]3O[C@H](CO[C@H]4OC[C@@H](O)[C@H](O)[C@H]4O)[C@@H](O)[C@H](O)[C@H]3O)[C@H](O)[C@H]2O)[C@H](O)[C@H]1O)[C@H](O)[C@@H](O)CO
The data set is described as above. To be noted: 50 mM sodium phosphate pH 4.5, 60 °C, 5 min, 0.0125-0.8 mM substrate. It is filed as biochemical, Phaeoacremonium minimum. An excerpt:
bicinchoninate reducing-sugar assay, Michaelis-Menten nonlinear regression on PmIPase

In the case of IpeA (Aspergillus oryzae RIB40), in data set [1], the Km worked out at 629 ± 51 µM, the kcat stood at 586 ± 16 s⁻¹ and the specificity constant (kcat/Km) was determined as 931000 M⁻¹ s⁻¹.

B1: PmIPase (Phaeoacremonium minimum UCRPA7) (protein)
chain: VPVYKNPNATVDDRIADLLKRMTIEDKTAQLIQGDISNWINTTDGTFNATGLEWNMKYRASMFYVGYPTNWSTISNGVKIAQDYLVHNTTLGIPALVQSEGIHGFLIPNATIFNSPIAQACSWNPELVEKMGKAIAQESLALGVNNLFAPLGDLARELRFGRVEETYGEDGYLSGEMAYSYVKGLQSGNVAAMVKHFAAFATPEQGVNTAPVHGGERELLTTYLPSYKRAIIDAGAYTIMSAYHCYDGVPAVADYHVLTEILRDSWGFKYFVMSDAGGTDRLCNSFGMCEASPIDSEAVTSMVLPSGNDVEMGGGSYNFQKIPEMVAAGKLDEKLVDQAVSRVLRVKFEMGLFEKPYQGVAEDEASKYINTKETIELARQLDTESIVLLENHEDLLPLKKSAKIAVIGPMAHGYMNYGDYVPYRSQYRGVTPLDGIRAAVDDESSVSYAQGCERWSNDESGFPEAIAAAEGADVAVVVVGTWSRDQGELWQNLNATTGEHIDVASLNLVGAMPRLVSAIINTGKPTVVVFSSGKPVTEPWISTNASALVQQFYPSEQGGNALADVLFGDYNPSGRLSVSFPYDVGTTPIYYDYLNSARAWPNPGHAYPNGTLVFGSNYVLNTPLPLYDFGYGKSYSTFSYSEITLSKSTASSSDTVTVSVDVTNNSTRDGTEVVQLYVKDLVSSVVVPNKQLKGFAKIPIAAGATETVKLDLKVADLGLWDIKYNYVVEPGNFTIFIGSSSADFRANTTLTVV
notes: synthetic codon-optimized gene, secreted from Pichia pastoris X-33 (pGAPZalpha A), Myc and His6 tags kept; full length 777 aa (2334 bp), predicted 24-aa N-terminal signal peptide absent from calculated mass 85 kDa; N-glycosylated, ~101 kDa on SDS/PAGE; putative nucleophile Asp-299, acid/base Glu-523
On to B1, for which, in data set [2], the Km came out at 47.5 ± 4.8 µM, the kcat is 101 ± 3 s⁻¹ and the kcat/Km is 2.13e+06 M⁻¹ s⁻¹.
